Experimental data published in patent publication US20260242735A1 (UNIVERSIT T BASEL, published 2026).

Legend:
Experiment in all cases: flow cytometry, IgG on cells expressing the mutant
human CD33 variant P48L = human CD33 variant P48L (human, UniProt P20138 18-364)
Method: (§1) An alanine scan on human CD33 was performed to the determine the residues on CD33 that are involved in binding to the antibodies investigated. […] Briefly, a mutation library of CD33 was created by high-throughput, site-directed mutagenesis. Each residue was individually mutated to alanine, with alanine codons mutated to serine. The mutant library was arrayed in 384-well microplates and transiently transfected into HEK293-T. Following transfection, cells were incubated with the indicated antibodies (IgG or Fab) at concentrations pre-determined using an independent immunofluorescence titration curve on wild type CD33. […] Binding of each antibody to each mutant clone was determined in duplicates. For each point, background fluorescence was subtracted from the raw data, which were then normalized to antibody reactivity with wild type CD33.
(§2) Antibodies were screened for binding to the human CD33 variants in IgG format. […] For each mutation, background fluorescence was subtracted from the raw data, which were then normalized to antibody reactivity with wild-type CD33.

human CD33 variant R122I = human CD33 variant R122I (human, UniProt P20138 18-364)
Method: as §1, §2

human CD33 variant R122F = human CD33 variant R122F (human, UniProt P20138 18-364)
Method: as §1, §2

human CD33 variant R122S = human CD33 variant R122S (human, UniProt P20138 18-364)
Method: as §1, §2

human CD33 variant Y49G = human CD33 variant Y49G (human, UniProt P20138 18-364)
Method: as §1, §2

human CD33 variant R122G = human CD33 variant R122G (human, UniProt P20138 18-364)
Method: as §1, §2

human CD33 variant Y49P = human CD33 variant Y49P (human, UniProt P20138 18-364)
Method: as §1, §2

human CD33 variant P48M = human CD33 variant P48M (human, UniProt P20138 18-364)
Method: as §1, §2

human CD33 variant Y49C = human CD33 variant Y49C (human, UniProt P20138 18-364)
Method: as §1, §2

human CD33 variant Y49R = human CD33 variant Y49R (human, UniProt P20138 18-364)
Method: as §1, §2

human CD33 variant I47E = human CD33 variant I47E (human, UniProt P20138 18-364)
Method: as §1, §2

human CD33 variant D51N = human CD33 variant D51N (human, UniProt P20138 18-364)
Method: as §1, §2

human CD33 variant Y127H = human CD33 variant Y127H (human, UniProt P20138 18-364)
Method: as §1, §2

human CD33 variant Y49D = human CD33 variant Y49D (human, UniProt P20138 18-364)
Method: as §1, §2

human CD33 variant P48G = human CD33 variant P48G (human, UniProt P20138 18-364)
Method: as §1, §2

human CD33 variant P48T = human CD33 variant P48T (human, UniProt P20138 18-364)
Method: as §1, §2

human CD33 variant P48F = human CD33 variant P48F (human, UniProt P20138 18-364)
Method: as §1, §2

human CD33 variant P48V = human CD33 variant P48V (human, UniProt P20138 18-364)
Sequence of human CD33 variant P48V (P20138 18-364 P48V limits assumed): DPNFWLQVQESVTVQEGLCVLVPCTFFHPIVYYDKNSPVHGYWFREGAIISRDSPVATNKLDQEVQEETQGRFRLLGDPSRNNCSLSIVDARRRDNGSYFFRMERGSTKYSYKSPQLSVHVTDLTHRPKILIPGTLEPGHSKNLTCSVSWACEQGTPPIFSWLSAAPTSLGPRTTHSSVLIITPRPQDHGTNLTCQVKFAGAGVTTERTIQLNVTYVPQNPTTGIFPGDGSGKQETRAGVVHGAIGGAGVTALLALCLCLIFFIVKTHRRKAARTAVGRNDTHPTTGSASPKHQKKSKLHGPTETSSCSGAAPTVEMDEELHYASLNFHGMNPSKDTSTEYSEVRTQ
Method: as §1, §2

Sequence of human CD33 variant P48G (P20138 18-364 P48G limits assumed): as the sequence (P20138 18-364 P48V limits assumed) above, with V31G counted along it
Sequence of human CD33 variant R122S (P20138 18-364 R122S limits assumed): as the sequence (P20138 18-364 P48V limits assumed) above, with V31P, R105S counted along it
Sequence of human CD33 variant D51N (P20138 18-364 D51N limits assumed): as the sequence (P20138 18-364 P48V limits assumed) above, with V31P, D34N counted along it
Sequence of human CD33 variant R122G (P20138 18-364 R122G limits assumed): as the sequence (P20138 18-364 P48V limits assumed) above, with V31P, R105G counted along it
Sequence of human CD33 variant I47E (P20138 18-364 I47E limits assumed): as the sequence (P20138 18-364 P48V limits assumed) above, with I30E, V31P counted along it
Sequence of human CD33 variant P48T (P20138 18-364 P48T limits assumed): as the sequence (P20138 18-364 P48V limits assumed) above, with V31T counted along it
Sequence of human CD33 variant R122I (P20138 18-364 R122I limits assumed): as the sequence (P20138 18-364 P48V limits assumed) above, with V31P, R105I counted along it
Sequence of human CD33 variant P48M (P20138 18-364 P48M limits assumed): as the sequence (P20138 18-364 P48V limits assumed) above, with V31M counted along it
Sequence of human CD33 variant Y49C (P20138 18-364 Y49C limits assumed): as the sequence (P20138 18-364 P48V limits assumed) above, with V31P, Y32C counted along it
Sequence of human CD33 variant Y49R (P20138 18-364 Y49R limits assumed): as the sequence (P20138 18-364 P48V limits assumed) above, with V31P, Y32R counted along it
Sequence of human CD33 variant R122F (P20138 18-364 R122F limits assumed): as the sequence (P20138 18-364 P48V limits assumed) above, with V31P, R105F counted along it
Sequence of human CD33 variant Y49D (P20138 18-364 Y49D limits assumed): as the sequence (P20138 18-364 P48V limits assumed) above, with V31P, Y32D counted along it
Sequence of human CD33 variant Y49G (P20138 18-364 Y49G limits assumed): as the sequence (P20138 18-364 P48V limits assumed) above, with V31P, Y32G counted along it
Sequence of human CD33 variant Y127H (P20138 18-364 Y127H limits assumed): as the sequence (P20138 18-364 P48V limits assumed) above, with V31P, Y110H counted along it
Sequence of human CD33 variant P48F (P20138 18-364 P48F limits assumed): as the sequence (P20138 18-364 P48V limits assumed) above, with V31F counted along it
Sequence of human CD33 variant P48L (P20138 18-364 P48L limits assumed): as the sequence (P20138 18-364 P48V limits assumed) above, with V31L counted along it
Sequence of human CD33 variant Y49P (P20138 18-364 Y49P limits assumed): as the sequence (P20138 18-364 P48V limits assumed) above, with V31P, Y32P counted along it

Mean % WT Binding (human CD33 variant P48L)	Mean % WT Binding (human CD33 variant R122I)	Mean % WT Binding (human CD33 variant R122F)	Mean % WT Binding (human CD33 variant R122S)	Mean % WT Binding (human CD33 variant Y49G)	Mean % WT Binding (human CD33 variant R122G)	Mean % WT Binding (human CD33 variant Y49P)	Mean % WT Binding (human CD33 variant P48M)	Mean % WT Binding (human CD33 variant Y49C)	Mean % WT Binding (human CD33 variant Y49R)	Mean % WT Binding (human CD33 variant I47E)	Mean % WT Binding (human CD33 variant D51N)	Mean % WT Binding (human CD33 variant Y127H)	Mean % WT Binding (human CD33 variant Y49D)	Mean % WT Binding (human CD33 variant P48G)	Mean % WT Binding (human CD33 variant P48T)	Mean % WT Binding (human CD33 variant P48F)	Mean % WT Binding (human CD33 variant P48V)	Binder
111 % of WT	112 % of WT	106 % of WT	111 % of WT	108 % of WT	114 % of WT	92.1 % of WT	106 % of WT	59.2 % of WT	79 % of WT	109 % of WT	107 % of WT	75.4 % of WT	94.4 % of WT	108 % of WT	102 % of WT	100 % of WT	113 % of WT	Refmab #3 (antibody, human IgG1, V domains shown, Tested in IgG format; human IgG1 Fc silent (PG-LALA)) VH: QVQLVQSGAEVKKPGSSVKVSCKASGYTFTDYNMHWVRQAPGQGLEWIGYIYPYNGGTGYNQKFKSKATITADESTNTAYMELSSLRSEDTAVYYCARGRPAMDYWGQGTLVTVSS VL: DIQMTQSPSSLSASVGDRVTITCRASESVDNYGISFMNWFQQKPGKAPKLLIYAASNQGSGVPSRFSGSGSGTDFTLTISSLQPDDFATYYCQQSKEVPWTFGQGTKVEIK
1 % of WT	85.8 % of WT	58.1 % of WT	90.2 % of WT	54.9 % of WT	91.3 % of WT	1.2 % of WT	1.3 % of WT	0.5 % of WT	55.7 % of WT	54.8 % of WT	76.4 % of WT	105 % of WT	2.5 % of WT	0.4 % of WT	11.7 % of WT	0.3 % of WT	88.5 % of WT	Refmab #4 (antibody, human IgG1, V domains shown, Tested in IgG format; human IgG1 Fc silent (PG-LALA)) VH: QVQLVQSGAEVKKPGESVKVSCKASGYTFTNYGMNWVKQAPGQGLEWMGWINTYTGEPTYADKFQGRVTMTTDTSTSTAYMEIRNLGGDDTAVYYCARWSWSDGYYVYFDYWGQGTSVTVSS VL: DIVMTQSPDSLTVSLGERTTINCKSSQSVLDSSTNKNSLAWYQQKPGQPPKLLLSWASTRESGIPDRFSGSGSGTDFTLTIDSPQPEDSATYYCQQSAHFPITFGQGTRLEIK
